Values of other authors in patent US20140031310A1, “PHARMACEUTICAL COMPOSITIONS AND METHODS FOR MAKING AND USING THEM” (priority 2011, published 2014).

Columns and labels:
[1] = in vivo
[2] = in vivo; remark: listed apart in the source

pharmacokinetic half-life [2] [h]	Compound	leads to HFSR / skin toxicity [1]
–	bevacizumab: anti-VEGF mAb	Neither anti-VEGF mAbs (bevacizumab) nor PDGF-R inhibitors (e.g., imatinib) lead to HFSR
20 to 24	CNC(=O)c1cc(Oc2ccc(NC(=O)Nc3ccc(Cl)c(C(F)(F)F)c3)cc2)ccn1 [sorafenib]	–
